T1: p115HEF1 (full length HEF1, 115 kD form) (human, UniProt Q14511 1-834, form derived from differential phosphorylation; sites not given)
T1 construct: Transfected into 293 cells; tag not described
T1 sequence (looked up): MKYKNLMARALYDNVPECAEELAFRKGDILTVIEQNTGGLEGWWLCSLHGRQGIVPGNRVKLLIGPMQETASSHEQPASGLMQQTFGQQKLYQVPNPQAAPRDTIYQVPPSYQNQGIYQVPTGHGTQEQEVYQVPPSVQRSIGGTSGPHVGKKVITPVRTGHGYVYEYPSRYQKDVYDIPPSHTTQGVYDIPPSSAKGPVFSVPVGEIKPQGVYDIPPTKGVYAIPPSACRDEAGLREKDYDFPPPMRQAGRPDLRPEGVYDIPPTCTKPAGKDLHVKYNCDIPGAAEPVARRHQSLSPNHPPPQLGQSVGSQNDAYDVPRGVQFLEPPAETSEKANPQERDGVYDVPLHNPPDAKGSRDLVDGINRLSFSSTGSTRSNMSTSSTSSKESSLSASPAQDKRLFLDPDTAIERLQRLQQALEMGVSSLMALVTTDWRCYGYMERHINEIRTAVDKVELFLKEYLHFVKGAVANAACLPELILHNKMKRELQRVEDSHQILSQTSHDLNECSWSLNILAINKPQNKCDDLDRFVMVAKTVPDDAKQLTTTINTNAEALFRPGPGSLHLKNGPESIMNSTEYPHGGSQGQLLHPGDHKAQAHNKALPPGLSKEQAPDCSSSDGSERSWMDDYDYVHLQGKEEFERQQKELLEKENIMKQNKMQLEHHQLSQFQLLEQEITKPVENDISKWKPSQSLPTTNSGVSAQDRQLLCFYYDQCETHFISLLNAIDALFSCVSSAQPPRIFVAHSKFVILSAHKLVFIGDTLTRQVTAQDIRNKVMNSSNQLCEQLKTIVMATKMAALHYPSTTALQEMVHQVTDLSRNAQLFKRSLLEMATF

T2: p105HEF1 (full length HEF1, 105 kD form) (human, UniProt Q14511 1-834, form derived from differential phosphorylation; sites not given)
T2 construct: Transfected into 293 cells; tag not described
T2 sequence (looked up): T1 sequence (looked up)

T3: HEF1 M2 (aa 651-834) (human, UniProt Q14511 651-834)
T3 construct: range 651-834
T3 sequence (looked up): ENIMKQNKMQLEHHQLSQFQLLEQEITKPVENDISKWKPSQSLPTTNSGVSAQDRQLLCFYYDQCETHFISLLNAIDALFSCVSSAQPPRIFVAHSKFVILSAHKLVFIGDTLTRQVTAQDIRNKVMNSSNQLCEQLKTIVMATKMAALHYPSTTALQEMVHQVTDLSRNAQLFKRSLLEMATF

B1: Smad1 (other, UniProt Q15797 1-465, looked up)
chain: MNVTSLFSFTSPAVKRLLGWKQGDEEEKWAEKAVDALVKKLKKKKGAMEELEKALSCPGQPSNCVTIPRSLDGRLQVSHRKGLPHVIYCRVWRWPDLQSHHELKPLECCEFPFGSKQKEVCINPYHYKRVESPVLPPVLVPRHSEYNPQHSLLAQFRNLGQNEPHMPLNATFPDSFQQPNSHPFPHSPNSSYPNSPGSSSSTYPHSPTSSDPGSPFQMPADTPPPAYLPPEDPMTQDGSQPMDTNMMAPPLPSEINRGDVQAVAYEEPKHWCSIVYYELNNRVGEAFHASSTSVLVDGFTDPSNNKNRFCLGLLSNVNRNSTIENTRRHIGKGVHLYYVGGEVYAECLSDSSIFVQSRNCNYHHGFHPTTVCKIPSGCSLKIFNNQEFAQLLAQSVNHGFETVYELTKMCTIRMSFVKGWGAEYHRQDVTSTPCWIEIHLHGPLQWLDKVLTQMGSPHNPISSVS
notes: also called Smad1 itself
B2: HEF1 M2/C (aa 695-832) (other, human, UniProt Q14511 695-832, looked up)
chain: TTNSGVSAQDRQLLCFYYDQCETHFISLLNAIDALFSCVSSAQPPRIFVAHSKFVILSAHKLVFIGDTLTRQVTAQDIRNKVMNSSNQLCEQLKTIVMATKMAALHYPSTTALQEMVHQVTDLSRNAQLFKRSLLEMA
notes: range 695-832
B3: Smad4 (other, UniProt Q13485 1-552, looked up)
chain: MDNMSITNTPTSNDACLSIVHSLMCHRQGGESETFAKRAIESLVKKLKEKKDELDSLITAITTNGAHPSKCVTIQRTLDGRLQVAGRKGFPHVIYARLWRWPDLHKNELKHVKYCQYAFDLKCDSVCVNPYHYERVVSPGIDLSGLTLQSNAPSSMMVKDEYVHDFEGQPSLSTEGHSIQTIQHPPSNRASTETYSTPALLAPSESNATSTANFPNIPVASTSQPASILGGSHSEGLLQIASGPQPGQQQNGFTGQPATYHHNSTTTWTGSRTAPYTPNLPHHQNGHLQHHPPMPPHPGHYWPVHNELAFQPPISNHPAPEYWCSIAYFEMDVQVGETFKVPSSCPIVTVDGYVDPSGGDRFCLGQLSNVHRTEAIERARLHIGKGVQLECKGEGDVWVRCLSDHAVFVQSYYLDREAGRAPGDAVHKIYPSAYIKVFDLRQCHRQMQQQAATAQAAAAAQAAAVAGNIPGPGSVGGIAPAISLSAAAGIGVDDLRRLCILRMSFVKGWGPDYPRQSIKETPCWIEIHLHRALQLLDEVLHTMPIADPQPLD
notes: also called DPC4
B4: Clone S1+12 (other)
chain: EFGTRRMMEGLDDGPDFLSEEDRGLKAINVDLQSDAALQVDISDALSERDKVKFTVHTKSSLPNFKQNEFSVVRQHEEFIWLHDSFVENEDYAGYIIPPAPPRPDFDASREKLQKLGEGEGSMTKEEFTKMKQELEAEYLAIFKKTVAMHEVFLCRVAAHPILRRDLNFHVFLEYNQDLSVRGKKKKKNSRSFGLLRQ
notes: also called sorting nexin-like protein
B5: Clone S1+27 (SIP2) (other)
chain: KSSPLLIRMEESLNIVKYTAFLYNDQLIWSGLEQDDMRILYKYLTTSLFPRHIEPELAGRDSPIRAEMPGNLQHYGRFLTGPLNLNDPDAKCRFPKIFVNTDDTYEELHLIVYKAMSAAVCFMIDASVHPTLDFCRRLDSIVGPQLTVLASDICEQFNINKRMSGSEKEPQFKFIYFNHMNLAEKSTVHMRKTPSVSLTSVHPDLMKILGDINSDFTRVDEDEEIIVKAMSDYWVVGKKSDRRELYVILNQKNANLIEVNEVKKLCATQFNNIFFLD
notes: Novel clone from the human fetal brain library; also called Clone Smad1+ (S1+)27
B6: LexA-Smad1 (full length Smad1 fused in frame to the LexA DNA binding domain (1-202) in pEG202) (other)
chain: MKALTARQQEVFDLIRDHISQTGMPPTRAEIAQRLGFRSPNAAEEHLKALARKGVIEIVSGASRGIRLLQEEEEGLPLVGRVAAGEPLLAQQHIEGHYQVDPSLFKPNADFLLRVSGMSMKDIGIMDGDLLAVHKTQDVRNGQVVVARIDDEVTVKRLKKQGNKVELLPENSEFKPIVVDLRQQSFTIEGLAVGVIRNGDWLMNVTSLFSFTSPAVKRLLGWKQGDEEEKWAEKAVDALVKKLKKKKGAMEELEKALSCPGQPSNCVTIPRSLDGRLQVSHRKGLPHVIYCRVWRWPDLQSHHELKPLECCEFPFGSKQKEVCINPYHYKRVESPVLPPVLVPRHSEYNPQHSLLAQFRNLGQNEPHMPLNATFPDSFQQPNSHPFPHSPNSSYPNSPGSSSSTYPHSPTSSDPGSPFQMPADTPPPAYLPPEDPMTQDGSQPMDTNMMAPPLPSEINRGDVQAVAYEEPKHWCSIVYYELNNRVGEAFHASSTSVLVDGFTDPSNNKNRFCLGLLSNVNRNSTIENTRRHIGKGVHLYYVGGEVYAECLSDSSIFVQSRNCNYHHGFHPTTVCKIPSGCSLKIFNNQEFAQLLAQSVNHGFETVYELTKMCTIRMSFVKGWGAEYHRQDVTSTPCWIEIHLHGPLQWLDKVLTQMGSPHNPISSVS
notes: also called Smad1pEG202; full length Smad1 bait
B7: Smad3N (aa 1-144) (other, UniProt P84022 1-144, looked up)
chain: MSSILPFTPPIVKRLLGWKKGEQNGQEEKWCEKAVKSLVKKLKKTGQLDELEKAITTQNVNTKCITIPRSLDGRLQVSHRKGLPHVIYCRLWRWPDLHSHHELRAMELCEFAFNMKKDEVCVNPYHYQRVETPVLPPVLVPRHT
notes: range 1-144; also called N-terminal MH1 domain of Smad3
B8: Clone S1+28 (other)
chain: FAVDAKALPQNKPRPLTQEEIAQRRERARQRHAEKLAAAQGQAPLEPTQDGSAIETCPKGDEPRGDEQQVESMTPKPVLQEENNQESFIAFARVFSGVARRGKKIFVLGPKYSPLEFLRRVPLCFSAPPDGLPQVPHMAYCALENLYLLMGRELEYLEEVPPGNVLGIGGLQDFVLKSATLCSLPSCPPFIPLNFEATPIVRVAVEPKHPSEMPQLVKGMKLLNQADPCVQILIQETGEHVLVTAGEVHLQRCLDDLKERFAKIHISVSEPIIPFRETITKPPKVDMVNEEIGKQQKVAVIHQMKEDQSKIPEGIQVDSDGLITITTPNKLATLSVRAMPLPEEVTQILEENSDLIRSMEQLTSSLNEGENTHMIHQKTQEKIWEFKGKLEQHLTGRRWRNIVDQIWSFGPRKCGPNILVNKSEDFQNSVWTGPADKASKEASRYRDLGNSIVSGFQLATLSGPMCEEPLMGVCFVLEKWDLSKFEEQGASDLAKEDRRKMKPVLVEMKTKSYKMAALRPLRRGHHRKENLHSLTAMDLSQDS
notes: Novel clone from the human fetal brain library; also called human homologue of yeast translocation elongation factor
B9: HEF1 M2/M (aa 695-759) (other, human, UniProt Q14511 695-759, looked up)
chain: TTNSGVSAQDRQLLCFYYDQCETHFISLLNAIDALFSCVSSAQPPRIFVAHSKFVILSAHKLVFI
notes: range 695-759
B10: HEF1 M2/N (aa 651-759) (other, human, UniProt Q14511 651-759, looked up)
chain: ENIMKQNKMQLEHHQLSQFQLLEQEITKPVENDISKWKPSQSLPTTNSGVSAQDRQLLCFYYDQCETHFISLLNAIDALFSCVSSAQPPRIFVAHSKFVILSAHKLVFI
notes: range 651-759

Experiments:
[1] = molecular target: B6; experiment: yeast two-hybrid screen, LexA-Smad1 bait
Description: (§1) From the pooled stock of the transformants, ten million cells are screened on U^-H^-W^-L^- galactose plates containing X-gal. Only those that form blue colonies are picked as candidate positives. […] Methods of sequencing employ such enzymes as the Klenow fragment of DNA polymerase I, Sequenase® (US Biochemical Corp, Cleveland, Ohio), Taq polymerase (Perkin Elmer, Norwalk, Conn.), thermostable T7 polymerase (Amersham, Chicago, Ill.), or combinations of recombinant polymerases and proofreading exonucleases such as the ELONGASE Amplification System (Gibco BRL, Gaithersburg, Md.). Preferably, the process is automated with machines such as the Hamilton Micro Lab 2200 (Hamilton, Reno Nev.), Peltier Thermal Cycler (PTC200; MJ Research, Watertown, Mass.) and the ABI 377 DNA sequencers (Perkin Elmer). […] The transformants are first streaked onto a master plate, then replicated onto two testing plates: U^-H^-W^- glucose plates with X-gal; U^-H^-W^- HW galactose/raffinose plates with X-gal.

Smad3N (aa 1-144) = molecular target: B7; experiment: co-immunoprecipitation, transfected cells
[2] = molecular target: T1, p115HEF1 (full length HEF1, 115 kD form); experiment: co-immunoprecipitation, transfected 293 cells
[3] = molecular target: T2, p105HEF1 (full length HEF1, 105 kD form); experiment: co-immunoprecipitation, transfected 293 cells
[4] = molecular target: B6; experiment: yeast two-hybrid (data not shown)
[5] = molecular target: B6; experiment: yeast two-hybrid; list of Smad1 interactors
Description: as §1

[6] = molecular target: T4, Uba 80 (ubiquitin fusion protein), clones S1+36 and S1+38 (human, UniProt P62979 1-156); experiment: list of S1+12 interactors; method not detailed
[7] = molecular target: the molecule itself; experiment: list of S1+12 interactors; method not detailed
HsN3 = molecular target: T5, HsN3 (human, UniProt P28070 1-264, limits assumed); experiment: list of HsN3 interactors; method not detailed
T5 construct: also called β subunit of 20S proteasome; untagged HsN3 protein
T5 sequence (P28070 whole entry): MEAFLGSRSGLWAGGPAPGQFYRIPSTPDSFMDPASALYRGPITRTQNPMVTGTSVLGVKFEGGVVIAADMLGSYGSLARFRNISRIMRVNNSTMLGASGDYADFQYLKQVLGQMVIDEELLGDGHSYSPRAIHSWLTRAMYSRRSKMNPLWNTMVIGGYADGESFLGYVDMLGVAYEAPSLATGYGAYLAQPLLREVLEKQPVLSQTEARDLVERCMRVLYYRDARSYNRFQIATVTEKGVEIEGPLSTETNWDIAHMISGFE

[8] = molecular target: T4, Uba 80 (ubiquitin fusion protein), …; experiment: yeast two-hybrid screen, LexA-Smad1 bait
Description: as §1

HEF1 M2 (aa 651-834) = molecular target: T3, HEF1 M2 (aa 651-834); experiment: co-immunoprecipitation, transfected cells

Binder: B1
binding result [1]: binds

Binder: B2
binding result (Smad3N (aa 1-144)): no binding

Binder: B3
binding result [2]: no binding
binding result [3]: no binding
binding result [4]: binds

Binder: B4
binding result [5]: binds
binding result [6]: binds
binding result [7]: binds
binding result (HsN3): binds

Binder: B5
binding result [5]: binds

Binder: B6
binding result [8]: binds

Binder: B7
binding result (HEF1 M2 (aa 651-834)): no binding

Binder: B8
binding result [5]: binds

Binder: B9
binding result (Smad3N (aa 1-144)): no binding

Binder: B10
binding result (Smad3N (aa 1-144)): no binding
